Test results published in patent US20260125446A1 (Eli Lilly, published 2026).
Numbering of substitutions follows the chain as printed. In names and notes the source's numbering stands.

B1: RLN Analog 1 (other)
chain: EVQLLESGGGLVQPGGSLRLSCAASGRYIDETAVAWFRQAPGKEREFVAGIGGGVDITYYADSVKGRFTISRDNSKNTLYLQMNSLRPEDTAVYYCAARPGRPLITSKVADLYPYWGQGTLVTVSSGGGGQGGGGQGGGGQGGGGQGGGGQQLYSALANKCCHVGCTKRSLARFCGGGSGGSGGGSWMEEVIKLCGRELVRAQIAICGMSTWS
B2: RLN Analog 3 (other)
chain: EVQLLESGGGLVQPGGSLRLSCAASGRYIDETAVAWFRQAPGKEREFVAGIGGGVDITYYADSVKGRFTISRDNSKNTLYLQMNSLRPEDTAVYYCAARPGRPLITSKVADLYPYWGQGTLVTVSSGGGGQGGGGQGGGGQGGGGQGGGGQSWMEEVIKLCGRELVRAQIAICGMSTWSGGGSGGSGGGQLYSALANKCCHVGCTKRSLARFC
notes: Single-chain fusion: VHH - (G4Q)5 L1 - RLN2 B chain (desB1) - L2 - RLN2 A chain
B3: RLN Analog 7 (other)
chain: B2 chain with E44G
notes: as for B2
B4: RLN Analog 4 (other)
chain: EVQLLESGGGLVQPGGSLRLSCAASGRYIDETAVAWFRQAPGKEREFVAGIGGGVDITYYADSVKGRFTISRDNSKNTLYLQMNSLRPEDTAVYYCAARPGRPLITSKVADLYPYWGQGTLVTVSSPGPQPGPQPGPQPGPQPGPQPGPQPGPQPGPQSWMEEVIKLCGRELVRAQIAICGMSTWSGGGSGGSGGGQLYSALANKCCHVGCTKRSLARFC
notes: Single-chain fusion: VHH - (PGPQ)8 L1 - RLN2 B chain (desB1) - L2 - RLN2 A chain
B5: RLN Analog 8 (other)
chain: B4 chain with E44G
notes: as for B4
B6: RLN Analog 11 (other)
chain: EVQLLESGGGLVQPGGSLRLSCAASGRYIDETAVAWFRQAPGKEREFVAGIGGGVDITYYADSVKGRFTISRDNSKNTLYLQMNSLRPEDTAVYYCAARPGRPLITSKVADLYPYWGQGTLVTVSSGGGGQGGGGQGGGGQGGGGQGGGGQSWMEEVIKLCGRELVRAQIAICGMSTWSGGGSGGSGGSGGGALANKCCHVGCTKRSLARFC
notes: Single-chain fusion: VHH - (G4Q)5 L1 - RLN2 B chain (desB1) - L2 of thirteen residues - RLN2 A chain (desA1-4)
B7: RLN Analog 12 (other)
chain: B6 chain with E44G
notes: as for B6
B8: RLN Analog 14 (other)
chain: EVQLLESGGGLVQPGGSLRLSCAASGRYIDETAVAWFRQAPGKGREFVAGIGGGVDITYYADSVKGRFTISRDNSKNTLYLQMNSLRPEDTAVYYCAARPGRPLITSKVADLYPYWGQGTLVTVSSPGPQPGPQPGPQPGPQPGPQPGPQPGPQPGPQALANKCCHVGCTKRSLARFCGGGSGGSGGGSWMEEVIKLCGRELVRAQIAICGMSTWS
notes: Single-chain fusion: VHH - (PGPQ)8 L1 - RLN2 A chain (desA1-4) - L2 - RLN2 B chain (desB1)

Target: T1, rabbit serum albumin (rabbit, UniProt P49065 25-608)
T1 construct: Bought protein, immobilized on a CM5 chip by amine coupling; also called Rabbit SA
Experiment: SPR (Biacore 8K), albumin immobilized on CM5 chip, 25 C
Protocol: (§1) The immobilization of the serum albumin to a Series S Sensor Chip CM5 surface is performed according to the manufacturer's instructions (Amine Coupling Kit BR-1000-50). Briefly, carboxyl groups on the sensor chip surfaces (flow cell 1 and 2) are activated by injecting 70 μL of a mixture containing 75 mg/mL EDC and 11.5 mg/mL NHS at 10 μL/min. Human, cynomolgus monkey, mouse, rat, pig, dog, cow and rabbit serum albumin are diluted in 10 mM sodium acetate pH 4.0 (BR-1003-49) at […] and then injected over the activated chip surfaces (flow cell 2, channel 1 to 8) at 10 μL/min for 180 sec (human, mouse, rat, pig and cow serum albumin are obtained from Sigma Aldrich (St. Louis, MO); cynomolgus monkey serum albumin is obtained from Hölzel Diagnostika (Cologne, Germany); dog serum albumin is obtained from Molecular Innovations (Novi, MI); and rabbit serum albumin is obtained from Fitzgerald Industries Intl. (Acton, MA). The various serum albumins are covalently immobilized through free amines onto a carboxymethyl dextran-coated sensor chip CM5 targeting a surface density of about 100 (62-145) RU. Excess reactive groups on the surfaces (flow cell 1 and 2) are deactivated by injecting 70 μL of 1 M ETA HCl—NaOH pH 8.5.
(§2) 150 μl of sample is individually injecting sequentially across the immobilized serum albumins on the chip's surface and dissociating for 600 sec at 50 μL/min flow rate at 25° C. The surface is regenerated by injecting 10 mM glycine-HCl pH 1.5 (BR-1003-54) at 50 μL/min for 100 sec. The resulting sensorgrams are analyzed using Biacore 8K Insight Evaluation Software (version 2.0.15.12933) 1:1 binding kinetics model fitting to calculate the binding kinetic parameter association rate (ka), dissociation rate (kd), and equilibrium dissociation constant (KD).

Binder | binding result
B1 | no binding (tested: 1000 nM (highest concentration tested))
B2 | no binding (tested: 1000 nM (highest concentration tested))
B3 | no binding (tested: 1000 nM (highest concentration tested))
B4 | no binding (tested: 1000 nM (highest concentration tested))
B5 | no binding (tested: 1000 nM (highest concentration tested))
B6 | no binding (tested: 1000 nM (highest concentration tested))
B7 | no binding (tested: 1000 nM (highest concentration tested))
B8 | no binding (tested: 1000 nM (highest concentration tested))

Target: T2, cow serum albumin (cow, UniProt P02769 25-607)
T2 construct: Bought protein, immobilized on a CM5 chip by amine coupling; also called Cow SA
Experiment: SPR (Biacore 8K), albumin immobilized on CM5 chip, 25 C, steady state
Protocol: as §1
150 μl of sample is individually injecting sequentially across the immobilized serum albumins on the chip's surface and dissociating for 600 sec at 50 μL/min flow rate at 25° C. The surface is regenerated by injecting 10 mM glycine-HCl pH 1.5 (BR-1003-54) at 50 μL/min for 100 sec. The resulting sensorgrams are analyzed using Biacore 8K Insight Evaluation Software ([…]).

Binder | Kd
B2 | 26 nM
B3 | 25 nM
B4 | 37 nM
B5 | 21 nM
B6 | 27 nM
B7 | 30 nM
B8 | 34 nM

Target: T3, pig serum albumin (pig, UniProt P08835 25-607)
T3 construct: Bought protein, immobilized on a CM5 chip by amine coupling; also called Pig SA
Experiment: SPR (Biacore 8K), albumin immobilized on CM5 chip, 25 C, 1:1 kinetic fit
Protocol: as §1, §2

Binder | Kd | koff | kon
B1 | 7.1 nM | 0.0055 s⁻¹ | 780000 M⁻¹ s⁻¹
B2 | 4.8 nM | 0.0053 s⁻¹ | 1.1e+06 M⁻¹ s⁻¹
B3 | 3.7 nM | 0.0054 s⁻¹ | 1.5e+06 M⁻¹ s⁻¹
B4 | 6.2 nM | 0.0053 s⁻¹ | 860000 M⁻¹ s⁻¹
B5 | 4.1 nM | 0.0052 s⁻¹ | 1.3e+06 M⁻¹ s⁻¹
B6 | 7.3 nM | 0.0062 s⁻¹ | 850000 M⁻¹ s⁻¹
B7 | 4.2 nM | 0.0058 s⁻¹ | 1.4e+06 M⁻¹ s⁻¹
B8 | 6 nM | 0.0058 s⁻¹ | 970000 M⁻¹ s⁻¹

Target: T2, cow serum albumin
Experiment: as above
Protocol: as §1, §2

Binder | Kd | koff | kon
B1 | 37 nM | 0.05 s⁻¹ | 1.4e+06 M⁻¹ s⁻¹

Target: T4, rat serum albumin (rat, UniProt P02770 25-608)
T4 construct: Bought protein, immobilized on a CM5 chip by amine coupling; also called Rat SA
Experiment: as above
Protocol: as §1, §2

Binder | Kd | koff | kon
B1 | 2.1 nM | 0.0026 s⁻¹ | 1.2e+06 M⁻¹ s⁻¹
B2 | 1.6 nM | 0.0027 s⁻¹ | 1.7e+06 M⁻¹ s⁻¹
B3 | 1.4 nM | 0.0028 s⁻¹ | 2e+06 M⁻¹ s⁻¹
B4 | 2.1 nM | 0.0026 s⁻¹ | 1.2e+06 M⁻¹ s⁻¹
B5 | 1.7 nM | 0.0028 s⁻¹ | 1.6e+06 M⁻¹ s⁻¹
B6 | 1.3 nM | 0.0028 s⁻¹ | 2.1e+06 M⁻¹ s⁻¹
B7 | 1.7 nM | 0.0033 s⁻¹ | 2e+06 M⁻¹ s⁻¹
B8 | 2.2 nM | 0.0032 s⁻¹ | 1.4e+06 M⁻¹ s⁻¹

Target: T5, mouse serum albumin (mouse, UniProt P07724 25-608)
T5 construct: Bought protein, immobilized on a CM5 chip by amine coupling; also called Mouse SA
Experiment: as above
Protocol: as §1, §2

Binder | Kd | koff | kon
B1 | 3.3 nM | 0.0042 s⁻¹ | 1.3e+06 M⁻¹ s⁻¹
B2 | 2.4 nM | 0.004 s⁻¹ | 1.7e+06 M⁻¹ s⁻¹
B3 | 2.1 nM | 0.0041 s⁻¹ | 2e+06 M⁻¹ s⁻¹
B4 | 3 nM | 0.0039 s⁻¹ | 1.3e+06 M⁻¹ s⁻¹
B5 | 1.8 nM | 0.0039 s⁻¹ | 2.2e+06 M⁻¹ s⁻¹
B6 | 3.6 nM | 0.005 s⁻¹ | 1.4e+06 M⁻¹ s⁻¹
B7 | 2.6 nM | 0.0049 s⁻¹ | 1.8e+06 M⁻¹ s⁻¹
B8 | 3.1 nM | 0.0046 s⁻¹ | 1.5e+06 M⁻¹ s⁻¹

Target: T6, human serum albumin (human, UniProt P02768 25-609)
T6 construct: Bought protein, immobilized on a CM5 chip by amine coupling; also called Human SA
Experiment: as above
Protocol: as §1, §2

Binder | Kd | koff | kon
B1 | 0.11 nM | 0.00011 s⁻¹ | 980000 M⁻¹ s⁻¹
B2 | 0.076 nM | 0.00011 s⁻¹ | 1.4e+06 M⁻¹ s⁻¹
B3 | 0.063 nM | 0.00012 s⁻¹ | 1.9e+06 M⁻¹ s⁻¹
B4 | 0.089 nM | 0.00011 s⁻¹ | 1.2e+06 M⁻¹ s⁻¹
B5 | 0.078 nM | 0.00011 s⁻¹ | 1.5e+06 M⁻¹ s⁻¹
B6 | 0.17 nM | 0.00021 s⁻¹ | 1.2e+06 M⁻¹ s⁻¹
B7 | 0.14 nM | 0.00019 s⁻¹ | 1.4e+06 M⁻¹ s⁻¹
B8 | 0.16 nM | 0.00019 s⁻¹ | 1.2e+06 M⁻¹ s⁻¹

Target: T7, dog serum albumin (dog, UniProt P49822 25-608)
T7 construct: Bought protein, immobilized on a CM5 chip by amine coupling; also called Dog SA
Experiment: as above
Protocol: as §1, §2

Binder | Kd | koff | kon
B1 | 1.2 nM | 0.0015 s⁻¹ | 1.3e+06 M⁻¹ s⁻¹
B2 | 0.7 nM | 0.0014 s⁻¹ | 2e+06 M⁻¹ s⁻¹
B3 | 0.69 nM | 0.0015 s⁻¹ | 2.2e+06 M⁻¹ s⁻¹
B4 | 1 nM | 0.0014 s⁻¹ | 1.4e+06 M⁻¹ s⁻¹
B5 | 0.66 nM | 0.0015 s⁻¹ | 2.3e+06 M⁻¹ s⁻¹
B6 | 1.3 nM | 0.0017 s⁻¹ | 1.4e+06 M⁻¹ s⁻¹
B7 | 0.77 nM | 0.0016 s⁻¹ | 2.1e+06 M⁻¹ s⁻¹
B8 | 1.1 nM | 0.0017 s⁻¹ | 1.5e+06 M⁻¹ s⁻¹

Target: T8, cynomolgus monkey serum albumin (cynomolgus monkey, UniProt A2V9Z4 25-608)
T8 construct: Bought protein, immobilized on a CM5 chip by amine coupling; also called Cyno SA
Experiment: as above
Protocol: as §1, §2

Binder | Kd | koff | kon
B1 | 0.5 nM | 0.00053 s⁻¹ | 1.1e+06 M⁻¹ s⁻¹
B2 | 0.36 nM | 0.00054 s⁻¹ | 1.5e+06 M⁻¹ s⁻¹
B3 | 0.29 nM | 0.00059 s⁻¹ | 2.1e+06 M⁻¹ s⁻¹
B4 | 0.42 nM | 0.00053 s⁻¹ | 1.3e+06 M⁻¹ s⁻¹
B5 | 0.32 nM | 0.00059 s⁻¹ | 1.9e+06 M⁻¹ s⁻¹
B6 | 0.48 nM | 0.00064 s⁻¹ | 1.3e+06 M⁻¹ s⁻¹
B7 | 0.47 nM | 0.0007 s⁻¹ | 1.5e+06 M⁻¹ s⁻¹
B8 | 0.61 nM | 0.00068 s⁻¹ | 1.1e+06 M⁻¹ s⁻¹
